# Test results: patent US20200017583A1 (Daiichi Sankyo, published 2020)
# Numbering of substitutions follows the chain as printed. Where no end group is shown, it is not given here. The star is where a group is joined. Biotin = O=C1N[C@H]2[C@H](CS[C@H]2CCCCC(=O)*)N1
# B1: rat anti-human GPR20 antibody 04-093 (antibody, rat IgG2b)
# heavy: EVQLVESGGGLVQPGRSLKLSCVASGFTFNNYWMTWIRQAPGKGLEWVASITNIDGSSYYPDSVKGRFTISRDNVKSTLYLQMNSLRSEDTATYYCTRGSFDYWGQGVMVTVSSAQTTAPSVYPLAPGCGDTTSSTVTLGCLVKGYFPEPVTVTWNSGALSSDVHTFPAVLQSGLYTLTSSVTSSTWPSQTVTCNVAHPASSTKVDKKVERRNGGIGHKCPTCPTCHKCPVPELLGGPSVFIFPPKPKDILLISQNAKVTCVVVDVSEEEPDVQFSWFVNNVEVHTAQTQPREEQYNSTFRVVSALPIQHQDWMSGKEFKCKVNNKALPSPIEKTISKPKGLVRKPQVYVMGPPTEQLTEQTVSLTCLTSGFLPNDIGVEWTSNGHIEKNYKNTEPVMDSDGSFFMYSKLNVERSRWDSRAPFVCSVVHEGLHNHHVEKSISRPPGK
# light: DIQMTQSPSVLSASVGDRVTLNCKASQNVNKYLNWFQQKLGEPPKLLIYNTNNLQTGIPSRFSGSGSGTDYTLTISSLQPEDVATYFCFQHVSWLTFGSGTKLEIKRADAAPTVSIFPPSTEQLATGGASVVCLMNNFYPRDISVKWKIDGTERRDGVLDSVTDQDSKDSTYSMSSTLSLTKADYESHNLYTCEVVHKTSSSPVVKSFNRNEC
# notes: Rat IgG2b, kappa, from a hybridoma; the full-length chains were made by linking them to known rat constant regions (IMGT IGHG2B*01, IGKC*01); also called 04-093 antibody; rat anti-GPR20 antibody 04-093
# B2: rabbit chimeric anti-GPR20 antibody OcChimera (antibody)
# heavy: EVQLVESGGGLVQPGRSLKLSCVASGFTFNNYWMTWIRQAPGKGLEWVASITNIDGSSYYPDSVKGRFTISRDNVKSTLYLQMNSLRSEDTATYYCTRGSFDYWGQGVMVTVSSGQPKAPSVFPLAPCCGDTPSSTVTLGCLVKGYLPEPVTVTWNSGTLTNGVRTFPSVRQSSGLYSLSSVVSVTSSSQPVTCNVAHPATNTKVDKTVAPSTCSKPTCPPPELLGGPSVFIFPPKPKDTLMISRTPEVTCVVVDVSQDDPEVQFTWYINNEQVRTARPPLREQQFNSTIRVVSTLPITHQDWLRGKEFKCKVHNKALPAPIEKTISKARGQPLEPKVYTMGPPREELSSRSVSLTCMINGFYPSDISVEWEKNGKAEDNYKTTPAVLDSDGSYFLYNKLSVPTSEWQRGDVFTCSVMHEALHNHYTQKSISRSPGK
# light: DIQMTQSPSVLSASVGDRVTLNCKASQNVNKYLNWFQQKLGEPPKLLIYNTNNLQTGIPSRFSGSGSGTDYTLTISSLQPEDVATYFCFQHVSWLTFGSGTKLEIKRDPVAPSVLLFPPSKEELTTGTATIVCVANKFYPSDITVTWKVDGTTQQSGIENSKTPQSPEDNTYSLSSTLSLTSAQYNSHSVYTCEVVQGSASPIVQSFNRGDC
# notes: 04-093 variable regions on rabbit IGHG*02 and IGKC2*01 constant regions; also called rabbit chimeric antibody; OcHch/OcLch
# B3: rabbit type anti-GPR20 antibody OcH1L1 (antibody, V domains shown)
# VH: EVQLKESGGGLVKPGGSLKLCCKASGFTFNNYWMTWIRQAPGKGLEWIASITNIDGSSYYASWVNGRFTLSRDNAQSTVCLQLNSLTAADTATYFCTRGSFDYWGQGTLVTVSS
# VL: DIVMTQTPSPVSAAVGGTVTINCKASQNVNKYLNWFQQKPGQPPKLLIYNTNNLQTGVPSRFSGSGSGTDYTLTISGVQCDDAATYYCFQHVSWLTFGGGTEVVVKG
# notes: CDR-grafted rabbit type form of 04-093; also called OcH01/OcL01
# B4: rabbit type anti-GPR20 antibody OcH2L1 (antibody, V domains shown)
# VH: B3 VH with C21S, A61P, S62D, W63S, N65K, L70I, V79L, C80Y
# VL: B3 VL
# notes: CDR-grafted rabbit type form of 04-093; also called OcH02/OcL01
# Assays:
# human GPR20 protein [1] = molecular target: T1, human GPR20 protein (human, UniProt Q99678 1-358); experiment: flow cytometry, hybridoma culture supernatant on 293T cells transiently expressing human GPR20 versus empty-vector 293T cells, anti-rat IgG FITC
# T1 construct: membrane fraction on SDS-PAGE for the Western blot; also called hGPR20; G protein-coupled receptor 20
# Procedure: The cells were left standing at 4° C. for 1 hour. […] The cells were left standing at 4° C. for 1 hour.
# [2] = molecular target: T2, GPR20 fragment peptide GLEVPLFHLFARLDEELHGT (human, N-terminally biotinylated and C-terminally amidated); experiment: BLI (Octet RED384), peptide on streptavidin sensor, antibody as analyte, 1:1 model
# T2 construct: Captured on streptavidin sensor chips; also called peptide consisting of amino acid positions 29 to 48 of GPR20
# T2 peptide: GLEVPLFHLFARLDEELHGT
# Text: (§1) For the detailed analysis of the epitope, a peptide consisting of amino acid positions 29 to 48 of GPR20, and peptides in which a terminal amino acid residue was continuously truncated one by one from this peptide, were synthesized, and then N-terminally biotinylated and C-terminally amidated to produce a GPR20 fragment peptide library (Sigma-Aldrich Japan G.K.). […] PBS-T was used as a buffer solution, and the sensor chips used were streptavidin sensor chips (manufactured by Pall ForteBio Corp.). […] Subsequently, the sensor chip was dipped in the buffer solution, and a dissociation phase was monitored for 270 seconds. […] The data was analyzed using 1:1 binding models to calculate association rate constant ka, dissociation rate constant kd and dissociation constant KD (KD=kd/ka).
# [3] = molecular target: T3, GPR20 fragment peptide GLEVPLFHLFARLDE (human, SMILES …); experiment: as above
# T3 construct: Captured on streptavidin sensor chips
# T3 peptide: Biotin-GLEVPLFHLFARLDE-NH2
# Text: as §1
# [4] = molecular target: T4, GPR20 fragment peptide GLEVPLFHLFARL (human, SMILES …); experiment: as above
# T4 construct: Captured on streptavidin sensor chips
# T4 peptide: Biotin-GLEVPLFHLFARL-NH2
# Text: as §1
# [5] = molecular target: T5, GPR20 fragment peptide GLEVPLFHLFAR (human, SMILES …); experiment: as above
# T5 construct: Captured on streptavidin sensor chips
# T5 peptide: Biotin-GLEVPLFHLFAR-NH2
# Text: as §1
# [6] = molecular target: T6, GPR20 fragment peptide LEVPLFHLFARLDEEL (human, SMILES …); experiment: as above
# T6 construct: Captured on streptavidin sensor chips
# T6 peptide: Biotin-LEVPLFHLFARLDEEL-NH2
# Text: as §1
# [7] = molecular target: T7, GPR20 fragment peptide GLEVPLFHLFARLDEEL (human, SMILES …); experiment: as above
# T7 construct: Captured on streptavidin sensor chips
# T7 peptide: Biotin-GLEVPLFHLFARLDEEL-NH2
# Text: as §1
# [8] = molecular target: T8, GPR20 fragment peptide GLEVPLFHLFARLD (human, SMILES …); experiment: as above
# T8 construct: Captured on streptavidin sensor chips
# T8 peptide: Biotin-GLEVPLFHLFARLD-NH2
# Text: as §1
# [9] = molecular target: T9, GPR20 fragment peptide GLEVPLFHLFARLDEE (human, SMILES …); experiment: as above
# T9 construct: Captured on streptavidin sensor chips
# T9 peptide: Biotin-GLEVPLFHLFARLDEE-NH2
# Text: as §1
# [10] = molecular target: T10, GPR20 fragment peptide VPLFHLFARLDEEL (human, SMILES …); experiment: as above
# T10 construct: Captured on streptavidin sensor chips
# T10 peptide: Biotin-VPLFHLFARLDEEL-NH2
# Text: as §1
# [11] = molecular target: T11, GPR20 fragment peptide EVPLFHLFARLDEEL (human, SMILES …); experiment: as above
# T11 construct: Captured on streptavidin sensor chips
# T11 peptide: Biotin-EVPLFHLFARLDEEL-NH2
# Text: as §1
# [12] = molecular target: T12, C-terminally biotinylated synthetic peptide 1 consisting of amino acids at positions 1 to 48 from the … (human, C-terminally biotinylated); experiment: peptide-ELISA, biotinylated peptide on NeutrAvidin plate, antibody at 1 µg/mL, anti-rat IgG-peroxidase, chemiluminescence
# T12 construct: Captured on NeutrAvidin plates
# T12 peptide: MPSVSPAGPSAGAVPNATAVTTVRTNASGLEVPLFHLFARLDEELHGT
# Procedure: NeutrAvidin (Pierce/Thermo Fisher Scientific Inc.) diluted to 1 μg/mL with PBS was added at 100 μL/well to 96-well Maxisorp plate (Nunc), and the plate was left standing overnight at 4° C. The solution was removed, and the plate was washed three times with 300 μL/well of PBS containing 0.05% Tween 20 (hereinafter, referred to as PBST). […] The plate was left standing at room temperature for 1 hour. The solution was removed from the plate, and each well was washed three times with PBST. Then, Blocker Casein in PBS (Thermo Fisher Scientific Inc.) was added at 100 μL/well, and the plate was left standing overnight at room temperature. The solution was removed, and each well was washed three times with PBST. […] The solution was removed, and each well was washed three times with PBST. Then, Anti-Rat IgG-Peroxidase antibody produced in rabbit (Jackson ImmunoResearch Laboratories, Inc.) 500-fold diluted with PBS was added at 100 μL/well, and the plate was left standing at room temperature for 1 hour. The solution was removed, and each well was washed three times with PBST. Then, SuperSignal ELISA Pico Chemiluminescent Substrate was added at 100 μl/well, and the plate was left standing at room temperature for 10 minutes, followed by the measurement of chemiluminescence using a plate reader (SpectraMax M3, Molecular Devices, LLC).
# [13] = molecular target: T13, synthetic peptide 2 consisting of amino acid positions 30 to 48 of human GPR20 (human, also: biotinylated, position not given here); experiment: as above
# T13 construct: Captured on NeutrAvidin plates
# T13 peptide: LEVPLFHLFARLDEELHGT
# human GPR20 protein [14] = molecular target: T1, human GPR20 protein; experiment: immunohistochemistry on paraffin-embedded GIST430 and GIST430/654 preparations, PC-3 as GPR20-negative control, DAB
# Procedure: Deparaffinization and antigen retrieval were carried out at 97° C. for 40 minutes with an antigen retrieval solution (Target Retrieval Solution High pH; manufactured by Dako/Agilent Technologies Inc.) using a pretreatment system for Autostainer Link (PT Link; manufactured by Dako/Agilent Technologies Inc.). Subsequent staining procedures were carried out at room temperature using an automatic staining apparatus (Dako Autostainer Link 48; manufactured by Dako/Agilent Technologies Inc.). After washing once with EnVision FLEX WASH BUFFER (manufactured by Dako/Agilent Technologies Inc.), Peroxidase Block 3% H2O2 (manufactured by Dako/Agilent Technologies Inc.) was added to the cells, which were then incubated for 5 minutes and washed once with EnVision FLEX WASH BUFFER. Protein Block serum free (manufactured by Dako/Agilent Technologies Inc.) was added to the cells, which were then incubated for 30 minutes. The solution was removed by air blow. A rat monoclonal anti-GPR20 antibody, a rabbit chimeric anti-GPR20 antibody or a rabbit type anti-GPR20 antibody was diluted into 1.0 μg/mL to 10 μg/mL with REAL Antibody Diluent (manufactured by Dako/Agilent Technologies Inc.) and reacted with the cells for 30 minutes.
# DAKO Liquid DAB+Substrate Chromogen System was added to the cells, which were then incubated for a total of 10 minutes and then washed once with EnVision FLEX WASH BUFFER. EnVision FLEX Hematoxylin was added to the cells, which were incubated for 5 minutes and then washed a total of three times with EnVision FLEX WASH BUFFER and ion-exchanged water.
binder,measurement,setting,value
B1,binding result,human GPR20 protein [1],binds
same,Kd,[2],< 0.001 nM
same,Kd,[3],< 0.001 nM
same,Kd,[4],1.1 nM
same,Kd,[5],13 nM
same,Kd,[6],< 0.001 nM
same,Kd,[7],< 0.001 nM
same,Kd,[8],< 0.001 nM
same,Kd,[9],< 0.001 nM
same,Kd,[10],5.7 nM
same,Kd,[11],1.1 nM
same,binding result,[12],binds
same,binding result,[13],binds
B2,binding result,human GPR20 protein [14],binds
B3,binding result,human GPR20 protein [14],binds
B4,binding result,human GPR20 protein [14],binds
